Reference: the nanobody polyreactivity screen of Harvey et al. (2022)

Test: yeast display, Sf9 membrane polyspecificity reagent, FACS + sequencing; frameworks hold sequencing errors
In short: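 A nanobody's polyreactivity label depends on the gate it was sorted from. Yeast display cells were stained with 10% biotinylated, detergent-solubilized Sf9 membrane reagent for 1 hour at 4 °C, enriched on streptavidin microbeads and sorted by FACS. The low and high (top ~1%) gates were set on anti-HA fluorescence for expression and streptavidin fluorescence for reagent binding.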

Which “polyreactivity (PSR sort gate)” value does the source give for “QVQLVESGGGLVQAGGSLRLSCAASGFTFAPYALGWYRQAPGKERELVAAIRRSGGSTYYADSVKGRFTISRDNAKNTVYLQMNSLKPEDTAVYYCAASTYQNGYGYWGQGTQVTVSS” here?
Its value is “high polyreactivity”.

For “QVQLVESGGGLVQAGGSLRLSCAASGFTFARNAMGWYRQAPGKERELVASITSGGSTNYADSVKGRFTISRDNAKNTVYLQMNSVKPEDSAVYYCNALWWAPGRPGEEIYRILDYWGQGTQVTVSS”, which “polyreactivity (PSR sort gate)” value is on record?
The value was “low polyreactivity”.

Which “polyreactivity (PSR sort gate)” value does the source give for “QVQLVESGGGLVQAGGSLRLSCAASGFTFARYAMGWYIQAPGKEREFVAAISLSTTSTYYADSVKGRFTISRDNAKNTVYLQMNSLKPEDTAVYYCATDIVGPHVDYWGQGTQVTVSS” here?
Its value is “low polyreactivity”.

Which “polyreactivity (PSR sort gate)” value does the source give for “QVQLVESGGGLVQAGGSLRLSCAASGFTFARYAMGWYRQAPGKERELVAAIDRSGGSTYYADSVKGRFTISRDNAKNTVFLQMNSLKPEDTAVYYCNAVSSFTSPRYDYWGQGTQVTVSS” here?
Its value is “high polyreactivity”.

With “QVQLVESGGGLVQAGGSLRLSCAASGFTFARYAMGWYRQAPGKERELVAAISSRGGRTYYADSVKGRFTISRDNAKNTVYLQMNSLKPEDTAVYYCNAGYAHTYDYWGQGTQVTVSS” as the sequence, how does the “polyreactivity (PSR sort gate)” value read?
The value was “high polyreactivity”.

With “QVQLVESGGGLVQAGGSLRLSCAASGFTFARYAMGWYRQAPGKERELVAAITYSGSGTYYADSVKGRFTISRDNAKNTVYLQMNSLKPEDTAVYYCYPVTRSARSYDYWGQGTQVTVSS” as the sequence, how does the “polyreactivity (PSR sort gate)” value read?
The value was “high polyreactivity”.

For “QVQLVESGGGLVQAGGSLRLSCAASGFTFARYAMGWYRQAPGNERELVAAITRRGGSTYYADSVKGRFTISRDNAKDTVYLQMNSLKPEDTAVYYCAADSSSGSDYWGQGTQVTVSS”, which “polyreactivity (PSR sort gate)” value is on record?
The value was “high polyreactivity”.

With “QVQLVESGGGLVQAGGSLRLSCAASGFTFARYAMGWYTKAPGKERELVARISSDGGGTDYADSVKGRFTISRDNAKNTVYLQMNSLKPEDTAVYYCAARFPGYHYFKYYYWGQGTQVTVSS” as the sequence, how does the “polyreactivity (PSR sort gate)” value read?
The value was “low polyreactivity”.

With “QVQLVESGGGLVQAGGSLRLSCAASGFTFARYTMGWSRQAPGKEREFVAAISWSGGRTYYADSVKGRFTISRDNAKNTVYLQMNSLKPEDTAVYYCAAEYWGVYRGFVSSFDYWGQGTQVTVSS” as the sequence, how does the “polyreactivity (PSR sort gate)” value read?
The value was “high polyreactivity”.

With “QVQLVESGGGLVQAGGSLRLSCAASGFTFARYTMGWYRQAPGKERELVAAISSRGSSTYYADSVKGRFTISRDNAKNTVYLQMNSLKRVDTAVYYCAAPPRYGYDYWGHGTQVTVSS” as the sequence, how does the “polyreactivity (PSR sort gate)” value read?
Its value is “high polyreactivity”.

With “QVQLVESGGGLVQAGGSLRLSCAASGFTFARYTMGWYRQEPGKERELVAAISSRGSSTYYADSVKGRFTISRDNAKNTVYLQMNSLKPEDTAVYYCAAPPRYGYDYWGQGTQVTVSS” as the sequence, how does the “polyreactivity (PSR sort gate)” value read?
The value was “high polyreactivity”.

With “QVQLVESGGGLVQAGGSLRLSCAASGFTFAVYVMGWSRQAPGKERELVATISFSVGSTYYADSVKRRFTISRDNAKNTVYLQMNSLKPEDTAVYYCNADPPPEYYPDKDNYWGQGTQVTVSS” as the sequence, how does the “polyreactivity (PSR sort gate)” value read?
Its value is “low polyreactivity”.

Which “polyreactivity (PSR sort gate)” value does the source give for “QVQLVESGGGLVQAGGSLRLSCAASGFTFAWNAMGWYRQAPGKERELVATIDVSGGSTYYADSVKGRFTISRDNAKNTVYLQMNSLKPEDTAVYYCAAVELPEGGYDYWGQGTQVTVSS” here?
Its value is “low polyreactivity”.

With “QVQLVESGGGLVQAGGSLRLSCAASGFTFAWYTMGWYRQAPGKERELVAGIDWSGGSTYYADSVKGRFTISRDNAKNTVYLQMNSLKPEDTAVYYCNAAGLYYVYPGYDYWGQGTQVTVSS” as the sequence, how does the “polyreactivity (PSR sort gate)” value read?
Its value is “high polyreactivity”.

For “QVQLVESGGGLVQAGGSLRLSCAASGFTFAYNAMGWYRQAPGKERELVAAISGRGVSTYYADSVKGRFTISRDNAKNTVYLQMNSLKPEDTAVYYCAKRYRYWTTERYDYWGQGTQVTVSS”, which “polyreactivity (PSR sort gate)” value is on record?
Its value is “high polyreactivity”.

With “QVQLVESGGGLVQAGGSLRLSCAASGFTFAYNAMGWYRQAPGKERELVAAISSSGGRTYYADSVKGRFTISRDNAKNTVYLQMNSLKPEDTAVYDCATRPKVAYEYDYWGQGTQVTVSS” as the sequence, how does the “polyreactivity (PSR sort gate)” value read?
Its value is “high polyreactivity”.

With “QVQLVESGGGLVQAGGSLRLSCAASGFTFAYYAMGWYRLAPGKERELVAAINRSGGSTYYADSVKGRFTISRDNAKNTVYIEMNSLKPEDTAVYYCAAARPSLRDGVAHYYWGQGTQVTVSS” as the sequence, how does the “polyreactivity (PSR sort gate)” value read?
Its value is “high polyreactivity”.

With “QVQLVESGGGLVQAGGSLRLSCAASGFTFAYYAMGWYRQAPGKERELVAAINWSGTRTSYADSVKGRFTISRDNAKNTVYLQMNSLKPEDSAVYYCAADSSLRYDYWGQGTQVTVSS” as the sequence, how does the “polyreactivity (PSR sort gate)” value read?
Its value is “high polyreactivity”.

Which “polyreactivity (PSR sort gate)” value does the source give for “QVQLVESGGGLVQAGGSLRLSCAASGFTFAYYAMGWYRQAPGKERELVASISYNGGITNYADSVKGRFTISRDNAKNTVYLQMNSLKPEDTAVYYCAAGVFFFTFDYWGQGTQVTVSS” here?
The value was “low polyreactivity”.

Which “polyreactivity (PSR sort gate)” value does the source give for “QVQLVESGGGLVQAGGSLRLSCAASGFTFAYYAMGWYRQAPGTERELVAAITYSGGSTYYADSVKGRFTISRDNAKNTVYLQMNSLKPEDTAVYYCNAYDRRYYYGRWYGEFDYWGQGTQVTVSS” here?
Its value is “low polyreactivity”.

For “QVQLVESGGGLVQAGGSLRLSCAASGFTFCKYTMGWYRQAPGKERELVAAITNSGTSTYYADSVKGRFTISRDNAKNTVYLQMNSLKPEDTAVYYCARDNEPDYYSYPYDYWGQGTQVTVSS”, which “polyreactivity (PSR sort gate)” value is on record?
Its value is “low polyreactivity”.

With “QVQLVESGGGLVQAGGSLRLSCAASGFTFCQYVMGWYRQAPGKERELVAAINWSGGSTYYADSVKGRFTISRDNAKNTVYLQMNSLKPEDTAVYYCNAVKAPYLRYDYWGQGTQVTVSS” as the sequence, how does the “polyreactivity (PSR sort gate)” value read?
Its value is “high polyreactivity”.

With “QVQLVESGGGLVQAGGSLRLSCAASGFTFDDYAMGWYRQAPGKERELVATITNSDSSTYYADSVKGRFTISRDNAKNTVYLQMNSLKPEDTAVYYCNADGEGADSDYDYWGQGTQVTVSS” as the sequence, how does the “polyreactivity (PSR sort gate)” value read?
Its value is “low polyreactivity”.

Which “polyreactivity (PSR sort gate)” value does the source give for “QVQLVESGGGLVQAGGSLRLSCAASGFTFDDYTMGWYRHAPGKERELVAAITSSGDSTYYADSVKGRFTISRDNAKNTVYLQMNSLKPEDTAVYYCAAQSYPFDRDYWGQGTQVTVSS” here?
Its value is “high polyreactivity”.

Which “polyreactivity (PSR sort gate)” value does the source give for “QVQLVESGGGLVQAGGSLRLSCAASGFTFDGYAMGWYRQAPGKERELVAAISDSGDSTYYADSVKGRFTISRDNAKNTVYLQMNSLKPEDTAVYYCAAGLGYYWSDYFAYDYWGQGTQVTVSS” here?
The value was “low polyreactivity”.

With “QVQLVESGGGLVQAGGSLRLSCAASGFTFDHNDMGWYRQAPGKEMELVAAITWSAGSTYYADSVKGRFTISRDNAKNTVYLEMNSLKPEDTAVYYCAADAWYYSIYRGGDYWGQGTQVTVSS” as the sequence, how does the “polyreactivity (PSR sort gate)” value read?
The value was “low polyreactivity”.

For “QVQLVESGGGLVQAGGSLRLSCAASGFTFDKNVMGWYRQAPGKERELVAAISVRGGTTYYADSVKGRFTISRDNAKNTVYLQMNSLKPEDTAVYYCAARAYGPPARYDSWGQGTQVTVSS”, which “polyreactivity (PSR sort gate)” value is on record?
Its value is “low polyreactivity”.

Which “polyreactivity (PSR sort gate)” value does the source give for “QVQLVESGGGLVQAGGSLRLSCAASGFTFDKYAMGWYRQAPGKERELVAAITQNGGSTNYADSVKGRFTISRDNAKNTVYLQMNSLKPEDTAVYYCATRSSYLSYVSRMYYWGQGTQVTVSS” here?
The value was “high polyreactivity”.

For “QVQLVESGGGLVQAGGSLRLSCAASGFTFDPYAMGWYRQAPGKERELVAAISFSGGSTSYADSVKGRFTISRDNAKNTVYLHMNSLKLEDTAVYYCNAEYDWWSYWYDYWGQGTQVTVSS”, which “polyreactivity (PSR sort gate)” value is on record?
Its value is “high polyreactivity”.

Which “polyreactivity (PSR sort gate)” value does the source give for “QVQLVESGGGLVQAGGSLRLSCAASGFTFDQYAMGRNRQAPGKERELVAVISSGGSTYYADSVKGRFTFSRDNAKNTVYLQMNSLKQEDTAVYYCNRDRQRRYDYWGQGTQVTLSS” here?
The value was “high polyreactivity”.

With “QVQLVESGGGLVQAGGSLRLSCAASGFTFDQYTMGWYRQAPGKERELVAAISSSGGSTYYADSVKGRFTISRDNAKNTVYLQMNSLKPEDTAVYYCAARFLLTQRVSHDYRGQGTQVTVSS” as the sequence, how does the “polyreactivity (PSR sort gate)” value read?
The value was “low polyreactivity”.

Which “polyreactivity (PSR sort gate)” value does the source give for “QVQLVESGGGLVQAGGSLRLSCAASGFTFDRNAMGWYRQAPGKERGFVAAISSSGGRTYYADSVKGRFTISRDNAKITVYLEMNSLKQEDTALYYCAADFVSRPSAYGSSYYWGQGTQVTVSS” here?
Its value is “high polyreactivity”.

Which “polyreactivity (PSR sort gate)” value does the source give for “QVQLVESGGGLVQAGGSLRLSCAASGFTFDSNAMGWYIQAPGKERELVAAISTGGSTYYADSVKGRFTISRDNAKNTVYLQMNSLKPEDTAVYYCARDPPYPDTWYGYWGQGTQVTVSS” here?
Its value is “low polyreactivity”.

For “QVQLVESGGGLVQAGGSLRLSCAASGFTFDSNAMGWYRQAPGKERELVAAISTGGSTYYADSVKGRFTISRDNAKNTVYLQMNSLKPEDTAVYYCARDPPYPDTWYGYWGQGTQVTVSS”, which “polyreactivity (PSR sort gate)” value is on record?
The value was “low polyreactivity”.

With “QVQLVESGGGLVQAGGSLRLSCAASGFTFDSYAMGWYRQAPGKERELVAAITSDGSTYYADSVKGRFTISRDNAKNTVYLQMNSLKPEDTAVYYCAADGISLYATAYDYWGQGTQVTVSS” as the sequence, how does the “polyreactivity (PSR sort gate)” value read?
Its value is “low polyreactivity”.

Which “polyreactivity (PSR sort gate)” value does the source give for “QVQLVESGGGLVQAGGSLRLSCAASGFTFDSYAMGWYRQAPGKERELVAAITWSGGSTYYADSVKGRFTISRDNAKNTVYLQMMSLKPEDTAVYYCNVYRYDGDYWGQGTQVTVSS” here?
The value was “high polyreactivity”.

Which “polyreactivity (PSR sort gate)” value does the source give for “QVQLVESGGGLVQAGGSLRLSCAASGFTFDSYAMGWYRQAPGKERELVADITWDGGSTYYADSVKGRFTISRDNAKNTVYLQMKSLKPEDTAVYYCAADFGTFSIDVYSWMDYWGQGTQATVSS” here?
Its value is “low polyreactivity”.

With “QVQLVESGGGLVQAGGSLRLSCAASGFTFDVYTMGWYRQAPGKEREFVAAISGSGGSTYYADSVKGRFTISRDNAKNTVYLQMNSLKPEDTAVYYCNAGLSRVSHRHLSHSLQGYDYWGQGTQVTVSS” as the sequence, how does the “polyreactivity (PSR sort gate)” value read?
The value was “low polyreactivity”.

With “QVQLVESGGGLVQAGGSLRLSCAASGFTFDYYAMGWYRQAPGKDRELVAAITSGSITYYADSVKGRFTISRDNAKNTVYLQMNSLKPEDTAVYYCARYGYRRVGSRWAEFDYWGQGTQVTVSS” as the sequence, how does the “polyreactivity (PSR sort gate)” value read?
Its value is “high polyreactivity”.

For “QVQLVESGGGLVQAGGSLRLSCAASGFTFDYYAMGWYRQAPGKERELVAAITSGSITYYADSVKGRFTISRDNAKNTVYLQMNSLKPEDTAVYYCARYGYRRVGSRWAEFDYWGQGTQVTVSS”, which “polyreactivity (PSR sort gate)” value is on record?
Its value is “high polyreactivity”.

Which “polyreactivity (PSR sort gate)” value does the source give for “QVQLVESGGGLVQAGGSLRLSCAASGFTFDYYVMGWYIQAPGKERELVAAITFSATSTYYADSVKGRYTISRDNAKNTVYLQMNSLNPEDTAVYYCAAVICNWQYQYYYWGQGTKVTVSS” here?
Its value is “low polyreactivity”.

Which “polyreactivity (PSR sort gate)” value does the source give for “QVQLVESGGGLVQAGGSLRLSCAASGFTFEFYVMGGYSPAPGKERELVAAISTTGGSTYYADSVKGRFTISRDNAKNTVYLQMNSLKPEDTAVYYCAAEYYLWWKSHLWEYGYWGQGTQVTVSS” here?
Its value is “high polyreactivity”.

Which “polyreactivity (PSR sort gate)” value does the source give for “QVQLVESGGGLVQAGGSLRLSCAASGFTFEGYAMGWYRQAPGKERELVAAISDNGGRTYYADSVKGRFTISRDNAKNTVYLQMHPLTPEETEVYYCNARPAYSGPDYDYYHGRRYDYWGQGTQVTVSS” here?
The value was “low polyreactivity”.
